Measured values taken from the supplement of paper PMC12042874.
± gives the uncertainty stated by the source.

assay: amyloid nucleation score (Sup35N fusion, yeast selection) (log enrichment); library NNK1; higher = more nucleation; inactive = no reads after selection
Summary of the method: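 Peptides of 20 random codons, each fused to Sup35N, were expressed in psi-negative yeast. Cells were induced with 100 μM copper sulfate for 24 hours and grown 7 days at 30°C on medium lacking adenine and uracil, and plasmid inserts before and after selection were Illumina-sequenced. Nucleation scores are DiMSum log enrichments of output over input reads, centred on the mode score of non-aggregating sequences, and sequences under 100 input reads were excluded.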

Substance | amyloid nucleation score
MACRSPEGLEYMKN | 0.209 ± 0.46
NHFLRSNNKYLSWGKTYIAP | -0.846 ± 2.4
YCHCRFFDNLGCECLLR | -0.368 ± 1.9
LISCIRFYCSVLGVDCTDSV | 0.235 ± 0.39
TMWIAGVRNR | -0.367 ± 0.62
GFYRGVTTIFCSVFI | 7.777 ± 0.07
GVPVYAVFLVDAMMYVCCMF | 3.51 ± 0.14
SLRDACFGVNI | -0.091 ± 0.29
RYRCSKVRRAMSKLTYVGMA | 4.18 ± 0.07
RIISRCFVMDVWFERQYVTR | 1.96 ± 0.18
DLKFHLLIWVCRIGSDKNVK | 0.071 ± 1.2
SWPSPGVRQEQNCWCTRTFV | inactive
IPVILSSSNYSDSKPGL | 0.964 ± 0.6
PFMLRSNGQWTSYINCIFIS | 7.865 ± 0.068
GGGVMASDKPCTRVSLINKM | 0.161 ± 0.7
AGNRTVYWMLTSVSTSG | 0.64 ± 0.75
DNSLFLYQRAR | -0.449 ± 0.82
LMAYNLGRPFAPFNCNVMGR | -0.268 ± 0.98
TGSLG | -0.214 ± 0.31
SCGLINWLRVYHLLSLNSGS | 2.31 ± 0.1
YRNEESVSKSHGCHDMSWFA | 0.505 ± 0.54
RLGPYSATWFVGKGKREGGV | 0.571 ± 0.55

Substance | amyloid nucleation score
SLIGYVIKW | -0.095 ± 0.63
VLLSQIVGIWAL | -0.642 ± 0.67
REVSMRDGGPVT | 0.298 ± 0.54
IYFTSTMKLRQDILADNEHC | 1.08 ± 0.54
IYNQESVEYQGTMYLHFRYW | inactive
LWLTFFSQ | 2.35 ± 0.11
SIYRYLCGRFDCLWILPCEH | 1.29 ± 0.84
LINDRPPSSAMERRNVATSS | 0.096 ± 0.57
VLLDGAKMSESAEGGISALW | -0.161 ± 0.46
INDESFWDCIVPNRMKGFSG | 0.325 ± 0.42
MVMMFTTDSMQAN | 0.906 ± 0.52
EPAFL | 0.229 ± 0.42
MLVLRMYYTRNS | 2.24 ± 0.23
SFVVTAEPSRAMNYSCFWKR | inactive
ICDYPIVMRKYPVS | -1.68 ± 1.4
SDSLFPTPLDFKMKIWGIMV | 0.062 ± 0.85
GDVLVSTNHIGFFKGPG | 1.91 ± 0.27
ATQLAFSMILSAAVYFLKVV | -1.33 ± 1.7
RPRICLWWSLNQMDVWNRDR | 2.17 ± 0.31
KMIDICPFIHWSQSSTPSRA | 0.018 ± 0.67
VMNENI | inactive
SLYRIFRKASFESCGLEWFA | 0.191 ± 0.66

Substance | amyloid nucleation score
KLMVHRNDRNPMY | -0.318 ± 0.63
TSMLDLN | -1.69 ± 1.8
GYILPLLDVDYVKSVMICFW | 3.8 ± 0.094
SAVLFIEFCVLIVVMFSIMM | -0.241 ± 1.2
LTGLVMTVCFFWKARRF | 0.845 ± 0.86
GRCDWTVLDMVDMIGKVESQ | 0.273 ± 0.25
EIVRLVSVSVWVG | 0.014 ± 0.69
VLVMVEFTMLEALWRCLAVG | -0.297 ± 0.5
YSDWHI | -0.511 ± 0.91
SRYWSLYGGIIVVSRSRTGR | 0.45 ± 0.32
NGLSRYKKDLGLVDWYFGQM | 0.744 ± 0.37
LFIDVSR | -0.021 ± 1.6
VRTLRTLAGLRRLLINKS | -0.137 ± 0.54
LRTCFEQRENMIA | -0.229 ± 0.79
QVYLILTEMRMTF | 1.4 ± 0.13
LPFGGAWVSLCLLRVICILR | inactive
FEYFCRRDRLTK | -0.209 ± 0.25
YFLGQMLISEGIMSVAFCVR | 5.13 ± 0.073
FEQTIISLVSGYFQSSDYWS | -0.596 ± 0.78
IMYSQNEGDMYESSFV | -0.551 ± 0.35
TLDWLMSIFLILVSLAFNGL | -0.14 ± 0.33
DVIHDICHAVSIIGAWCRDR | -0.061 ± 0.3

Substance | amyloid nucleation score
TVFYMRPVGSGTGNLNLLQL | 0.906 ± 1
VSVFNAQFIDRRGCR | 5.16 ± 0.063
RMSLLYLSSVKLFNWHAALG | -0.465 ± 0.6
LNFCSVRVMEEISMVWCMVF | 4.24 ± 0.11
GKLTYLPRVKNLHLHFSFEN | -0.169 ± 0.51
DYSMFHTVLKVRVCNYFFVW | 2.37 ± 0.24
IVYIWFLSLNFSMMVSFRFP | 0.805 ± 0.29
YRVNWFYMQRCAIP | -0.269 ± 0.86
DTVSMLHQLVCW | 7.245 ± 0.053
VRVMILHLSDILYYLWYGTI | 5.22 ± 0.078
TVMHSAMIYILVPVSGSGQV | 5 ± 0.064
IIVGEFENLYNSAINVK | inactive
ASKKNIF | -0.304 ± 0.79
KLESCN | 0.39 ± 1.2
RAGQVRNNDTSVEFAMCGRW | 0.355 ± 0.38
MLVHYVAFVFNMSTRCNCSE | 6.253 ± 0.046
KDICSYGLNYSLDNVVYNLV | 0.809 ± 0.39
IDGLNNYTSYNGTR | -0.219 ± 0.62
NSRKSAGHPSLESGSLLCYA | -0.041 ± 0.5
